# B1: Calvin cycle protein CP12, chloroplastic (Chlamydomonas reinhardtii), A6Q0K5 (parent)
# chain: MMLTKSVVISRPAVRPVSTRRAVVVRASGQPAVDLNKKVQDAVKEAEDACAKGTSADCAVAWDTVEELSAAVSHKKDAVKADVTLTDPLEAFCKDAPDADECRVYED
# partner: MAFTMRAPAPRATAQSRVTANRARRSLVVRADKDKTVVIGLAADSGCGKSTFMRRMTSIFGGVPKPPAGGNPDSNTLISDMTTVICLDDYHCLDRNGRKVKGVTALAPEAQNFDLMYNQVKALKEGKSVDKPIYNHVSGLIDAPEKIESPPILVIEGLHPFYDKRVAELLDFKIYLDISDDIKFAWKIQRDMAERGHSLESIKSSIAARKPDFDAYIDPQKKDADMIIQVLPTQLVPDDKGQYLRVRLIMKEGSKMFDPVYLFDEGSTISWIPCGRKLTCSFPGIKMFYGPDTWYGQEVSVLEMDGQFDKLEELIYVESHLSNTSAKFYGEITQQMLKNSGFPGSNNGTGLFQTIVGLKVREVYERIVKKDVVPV
# B2: Calvin cycle protein CP12, chloroplastic (Chlamydomonas reinhardtii), A6Q0K5 (parent)
# chain: B1 chain
# partner: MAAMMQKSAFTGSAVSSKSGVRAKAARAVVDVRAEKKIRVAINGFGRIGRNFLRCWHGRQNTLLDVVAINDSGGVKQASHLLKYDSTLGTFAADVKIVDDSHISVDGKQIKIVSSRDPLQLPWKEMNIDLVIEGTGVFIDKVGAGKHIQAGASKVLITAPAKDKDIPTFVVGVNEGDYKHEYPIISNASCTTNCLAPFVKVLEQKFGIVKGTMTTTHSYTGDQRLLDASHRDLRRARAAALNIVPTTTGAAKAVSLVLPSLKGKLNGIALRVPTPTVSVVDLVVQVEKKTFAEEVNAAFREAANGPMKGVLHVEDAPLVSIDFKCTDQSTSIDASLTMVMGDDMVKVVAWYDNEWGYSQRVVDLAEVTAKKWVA
# Variants of: B1
# Conditions: with kppr_chlre PRKA
row,Variant,effect of a mutation on the interaction
1,MMLTKSVVISRPAVRPVSTRRAVVVRASGQSAVDLNKKVQDAVKEAEDACAKGTSADCAVAWDTVEELSAAVSHKKDAVKADVTLTDPLEAFCKDAPDADECRVYED [P31S],decreasing interaction

# Variants of: B2
# Conditions: with g3pa_chlre GAPA
row,Variant,effect of a mutation on the interaction
1,MMLTKSVVISRPAVRPVSTRRAVVVRASGQPAVDLNKKVQDAVKEAEDACAKGTSADCAVAWDTVEELSAAVSHSKDAVKADVTLTDPLEAFCKDAPDADECRVYED [K75S],decreasing interaction

# Reference: IntAct's records for PubMed 24863370
